From patent publication US20160207996A1 (ARGEN X N V, published 2016)

Target: human Nav1.7 (full length) (human) (UniProt Q15858)
Assay: cell-based or functional assay

Binder | % inhibition of inward current following P02 voltage protocol, 10 µg/ml [%] | % inhibition of inward current following P02 voltage protocol, 25 µg/ml [%] | % inhibition of inward current following P02 voltage protocol, 100 µg/ml [%]
9A6 (antibody, V domains shown) VH: EVQLVQPGAELRNPGASVKVSCKASGYTYTSAYIVWVRQAPGEGLEWMGRIDPEDGGTKYAQKFQGRVTFTADTSTNTAYVELSSLRSDDTAVYYCTAGLDYWGKGTLVTVSS VL: ATMLTQSPGSLSVVPGESASISCKASQSLVHSDGMTYLYWLQQKPGQSPQRLIYRVSRRGSGVPDRFTGSGSGTDFTLNISDMKAEDAGVYYCAQDTYYPYSFGSGTSVEIK | 16.9 | 28 | 36.2

Target: T1, Nt-GCGR-hFc (human, UniProt P47871 26-136)
T1 construct: domain: N-terminal domain; also called Nt-GCGR-Fc; recombinant N-terminal domain of GCGR; not shown: hFc
T1 sequence (P47871 26-136): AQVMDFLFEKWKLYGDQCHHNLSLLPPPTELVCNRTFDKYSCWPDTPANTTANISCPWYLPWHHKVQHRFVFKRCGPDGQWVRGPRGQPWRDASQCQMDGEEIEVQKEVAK
Assay: scFv binding ELISA, periplasmic extract on coated Nt-GCGR

Binder | ScFv binding ELISA signal
scFv D6 (scFv, part only; not given: GS linker, not shown: small tags and cut ends) scFv, part: QLQLVESGGGLVQPGGSLRLSCAASGGIFDVMGWYHQAPGKQRGLVASITPAGSTNYADSVKGRFTISRDNAKNTVYLQMNSLKPDDTGVYYCYADGIDPRYGGDEFWGQGTQVTVSSSYELTQSPSVSVALRQTAKITCGGDNIGSKSAQWYQQKPGQAPVLVIYAGSRRPSGIPERFSGSNSGNTATLTVSGAQAEDEANYSCQVWDSSANASVFGGGTHLTVLG | 1.09
scFv A4 (scFv) QLQVVESGGGLVQPGGSLRLSCAASGFTFDSYWMYWVRQAPGKGLEWLSAINPGGGMTYYADSVKGRFTIARDNAKNTVYLQMNSLKSEDTAVYYCAKELRGSYYYISSEYDYWGQGTQVTVSSLPVLTQPPSVSGTLGKTVTISCAGTSSDIGDYNYVSWYQQLPGTAPKLLIYKVSTRASGIPDRFSGSKSGNTASLTISGLQSEDEADYYCASYRTSNNVVFGGGTHLTVLG | 0.342
scFv B4 (scFv) EVQVQESGPGLVKPSQTLSLTCTVSGGSITTDYSYWSWIRQPPGKGLEWMGAIAFSDTTYYSPSLKSRTSISRDTSKNQFTLQLSSVTPEDTAVYYCARLSTVAGMDYWGKGTLVTVSSASAAASGSYELTQSPSVSVALRQTAKITCGGNNIGSKSAQWYQQKPGQAPVLVIYADNRRPSEIPERFSGSNSGDTATLTISGAQAEDEADYYCQVWDSSANAAVFGGGTHLTVLG | 0.476
scFv B2 (scFv) EVQLQESGGGLVQPGGSLRLSCATSGFTFSNYYMSWVRQAPGKGPEWVSSIYSDLSTTYYADSVKGRFTISRDRAKNTLSLQMNSLKSEDTAVYYCARLSTVAGVDYWGKGTLVTVSSSYELTQSPSVSVALRQTAKITCGGNNIGSKSAQWYQQKPGQAPVLVIYADSRRPSGIPERFSGSNSGNTATLTISGAQAEDEADYYCQVWDSSAAVFGGGTHLTVLG | 0.137
scFv C12 (scFv, part only; not given: GS linker, not shown: small tags and cut ends) scFv, part: ELQVVESGGGLVPGGSLRLSCAASGFRVSVNAMSWVRQAPGKGLEWVSHIGSGGITGYADSVKGRFTISRDSAKNTLYLQMNSLKPEDTAVYYCTKRSSGYAWGQGTQVTVSSQAGLTQLPSVSGSPGQKITISCTGSSNNIGAGYSVQWFQQVPGSPPRLLIDGATNRDSGVPDRFSDSRSGSSASLTITGLQAEDEADYYWMLQQPQGVLCSAEGPI | 2.56
scFv D8 (scFv) EVQLVESEGGSVQPGDSLRLSCAASGFSFSNAGMSWVRQAPGKGLEWVSAIIPGGYAPYYADSVKGRFTISRDNAKNTVSLQMNSLKPEDTALYYCAKYGGNWDLEVWGQGTLVTVSSQSALTQPPSVSGTLGKTVTISCTGTSSDIGGYNSVSWYQQLPGTAPKLLIYEVNKRASGIPDRFSGSKSGDTASLTISGLQSADEADYYCASYRNTRKSVFGGGTHLTVLG | 1.14
scFv B8 (scFv) QVQLVESGGGLVQPGGSLRLSCATSGFTFSNYYMSWVRQAPGKGPEWVSSIYSDLSTTYYADSVKGRFTISRDRAKNTLYLQMNSLKSEDTAVYYCARLSTVAGMDYWGKGTLVTVSSSYELTQSPSVSVALRQTAKITCGGTNIGSKSAQWYQQKPGQAPMLVIYGDSRRPSGIPERFSGSNSGNTATLTISGAQAEDEADYYCQVWDSSANAAVFGGGTHLTVLG | 0.205
scFv A5 (scFv) ELQLVESGGGLVQPGGSLRLSCAASGSTFSTAAMSWVRQAPGKGLEWVSAISSFGASTSYADSVKGRFTISRDIAKNTLYLQMNSLKPEDAAVYYCANVGLHPSWGFTSGFWGQGTQVTVSSSSALTQPPSVSGSPGKTVTISCAGTSSDVGYGNYVSWYQQLPGMAPKLLIHDVNKRASGITDRFSGSKSGNTASLTISGLQSEDEADYYCASYRRRNEVVFGGGTHLTVLG | 1.31
scFv A8 (scFv) EVQVQESGPGLVKPSQTLSLTCTVSGESITTNYYYWNWIRQPPGKALEWMGAIGDSGTTWYNPSLKSRTSISRDTSKNQFTLQLISVTPEDTAVYYCARGFYDGSSLDFASWGQGTQVTVSSLSYELTQSPSVSVALRQAAKITCGGNNIASKFVNWYQQKPGQAPILVISKDTNRPSGIPERFSGSNSGNTATLTVSGAQAEDEADYYCQVWDGSAAVFGGGTHLTVLG | 1.7
scFv D7 (scFv) QVQLVESGGGLVQPGGSLRLSCAASGFTFSWYAMSWVRQGPGKGLEWVSAINGGGGSTSYEDSVKGRFTISRDNAKNTLYLEMNSLKPEDTAVYYCARYSDGYSGSYTYTDMDYWGKGTLVTVSSQAVVTQEPSLSVSPGGTVTLTCGLSSGSVTSSNYPVWYQQTPGQAPHLLIYNTNTRHSGVPSRFSGFISGNKAALTITGAQPEDEADYYCASYRRSGRAVFGGGTHLTVLG | 0.1
scFv A1 (scFv) QVQLVESGGGLVQPGGSLRLSCAASGFTFSSYAMTWVRQAPGKGLEWVSTITSNGDSTSYADSVKGRFTISRDNAKNTLYLQMDSLKPEDTAVYYCAKLGDGSYWFYYYGMDYWGQGTQVTVTSSSYELTQSSAVSLSLGQTARITCQGDNLGRYYVNWYQQKPGQAPVQVIYGNSNRPSGIPERFSGSSSGGTATLTISGAQAEDEADYYCQTYENSGVNLVFGGGTKLTVLG | 2.18
scFv D5 (scFv) EVQVQESGGGLVQPGGSLRLSCATSGFTFSNYYMSWVRQAPGKGPEWVSSIYSDLSTTYYADSVKGRFTISRDRAKNTLYLQMNSLKSEDTAVYYCARLSTVAGVDYWGKGTLVTVSSSYELTQSPSVSVALRQTAKITCGGNNIGDKSAQWYQQKPDQAPVLVIYADNRRPSEIPERFSGSNSGDTATLTISGAQAEDEADYYCQVWDSGANAAVFGGGTHLTVLG | 0.268
scFv A7 (scFv) QLQVVESGGGLVQPGGSLRLSCATSGFTFSNYYMSWVRQAPGKGPEWVSSIYSDLSTTYYADSVKGRFTISRDRAKNTLYLQMNSLKSEDTAVYYCARLSTVAGVDYWGKGTLVTVSSSYELTQSPSVSVALRQTAKITCGGNNIGSKSAQWYQQKPGQAPVLVIYADSRRPSGIPEKFSGSNSGNTATLTISGAQAEDEADYYCQVWDSSANAAVFGGGTHLTVLG | 0.394
scFv B5 (scFv, part only; not given: GS linker, not shown: small tags and cut ends) scFv, part: EVQLVQPGAELRNPGASVKVSCKASGYTFTSHYIDWVRQAPGQGLEWMGRIDPEDGGTTYEQKFQGRVTFTADTSTSTVYVELSSLRSEDTAVYYCARSTEIPTIRYYGMDYWGKGTPVTVSSQSVLTQPSAVSVSLGQTARITCQGGSLGSYGANWHQQKPGQAPVLLIYGDNSRPSGIPERFSGSKSGGTATLTISGAQAEDEADYYCQSFDYSGNAVFGGGTHLTVLG | 0.508
